Target: RBP4 (retinol binding protein 4) (Homo sapiens, UniProt P02753 19-201)
Assay: aptamer-antibody sandwich chemiluminescence on streptavidin wells; 2 mM Mg2+, 1 mM Ca2+; linear range 0.001-2 ng/mL, LOD 951 fg/mL; Binding buffer 20 mM Tris-HCl pH 7.6, 100 mM NaCl, 2 mM MgCl2, 5 mM KCl, 1 mM CaCl2, 0.02% Tween-20; RBP4 1 h (temperature not stated), reporter antibody step 1

B1: RBA (RBP4 aptamer), biotin-T10 (ssDNA)
DNA: TTTTTTTTTTATACCAGCTTATTCAATTACAGTAGTGAGGGGTCCGTCGTGGGGTAGTTGGGTCGTGGAGATAGTAAGTGCAATCT
  binding result: binds

— paper PMC6969062, “Ultrasensitive nano-aptasensor for monitoring retinol binding protein 4 as a biomarker for diabetes prognosis at early stages”
